Test results reported in patent US20050170434.

Target: p38 MAPK, Q16539
Sequence (Q16539 2-360): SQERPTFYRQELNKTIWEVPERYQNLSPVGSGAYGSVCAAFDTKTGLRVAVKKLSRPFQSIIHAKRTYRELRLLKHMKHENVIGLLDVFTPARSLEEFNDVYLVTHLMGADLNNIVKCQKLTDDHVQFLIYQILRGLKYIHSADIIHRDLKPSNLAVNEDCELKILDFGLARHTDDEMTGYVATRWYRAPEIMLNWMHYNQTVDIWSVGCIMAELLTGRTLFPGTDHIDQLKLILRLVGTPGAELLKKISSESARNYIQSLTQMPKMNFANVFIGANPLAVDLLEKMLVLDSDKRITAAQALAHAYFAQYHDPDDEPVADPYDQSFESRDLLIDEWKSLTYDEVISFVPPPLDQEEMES

B1: MKK3b (WT) (protein)
chain: MESPASSQPASMPQSKGKSKRKKDLRISCMSKPPAPNPTPPRNLDSRTFITIGDRNFEVEADDLVTISELGRGAYGVVEKVRHAQSGTIMAVKRIRATVNSQEQKRLLMDLDINMRTVDCFYTVTFYGALFREGDVWICMELMDTSLDKFYRKVLDKNMTIPEDILGEIAVSIVRALEHLHSKLSVIHRDVKPSNVLINKEGHVKMCDFGISGYLVDSVAKTMDAGCKPYMAPERINPELNQKGYNVKSDVWSLGITMIEMAILRFPYESWGTPFQQLKQVVEEPSPQLPADRFSPEFVDFTAQCLRKNPAERMSYLELMEHPFFTLHKTKKTDIAAFVKEILGEDS
- p38 phosphorylation (western blot using anti-phospho-p38 antibodies): in MKK3b (WT)-infected cells, the basal level of phosphorylated p38 protein dramatically increased compared with the basal level in cells infected with vector (TICD8)
